Measured values from patent US20220348650A1 (BIO THERA SOLUTIONS, published 2022).
Residue numbers refer to the chain shown, from its start.

T1: full-length human TIGIT on the cell surface (Jurkat-hTIGIT 2E6, CTI-Jurkat, primary human CD3+ cells) (human, UniProt Q495A1 22-244)
T1 sequence (looked up): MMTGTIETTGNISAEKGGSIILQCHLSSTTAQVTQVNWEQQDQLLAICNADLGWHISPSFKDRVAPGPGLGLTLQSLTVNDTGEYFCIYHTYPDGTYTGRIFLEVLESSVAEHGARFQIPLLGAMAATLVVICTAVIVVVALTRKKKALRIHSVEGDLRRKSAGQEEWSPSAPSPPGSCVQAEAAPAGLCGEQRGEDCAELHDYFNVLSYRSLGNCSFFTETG

T2: human TIGIT (antigen of the ELISA and of the m10D8 Biacore assay; construct not stated) (human, UniProt Q495A1 22-141)
T2 sequence: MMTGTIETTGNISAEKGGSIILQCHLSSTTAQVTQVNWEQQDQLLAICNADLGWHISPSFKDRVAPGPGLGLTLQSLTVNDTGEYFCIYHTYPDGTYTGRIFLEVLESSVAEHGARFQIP

T3: TIGIT-his tag antigen (UniProt Q495A1 22-141, limits assumed)
T3 construct: also called univalent TIGIT-his; not shown: his tag
T3 sequence (looked up): T2 sequence

T4: mouse TIGIT (mouse, UniProt P86176 29-148, limits assumed)
T4 sequence: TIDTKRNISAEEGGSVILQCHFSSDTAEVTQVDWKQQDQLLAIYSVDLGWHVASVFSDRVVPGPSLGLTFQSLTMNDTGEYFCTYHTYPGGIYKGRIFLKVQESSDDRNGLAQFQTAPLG

B1: h10D8OFKF (antibody, human IgG1, kappa, V domains shown)
VH: QVQLVESGGGVVQPGRSLRLDCKASGFTFSSYGMSWVRQAPGKGLELVATINSNGGSTYYPDSVKGRFTISRDNSKNTLFLQMNSLRAEDTAVYYCARLGTGTLGFAYWGQGTLVTVSS
VL: EIVMTQSPATLSLSPGERATLSCKASQDVKTAVSWYQQKPGQAPRLLIYWASTRATGIPARFSGSGSGTDYTLTISSLEPEDFAVYYCQQHYSTPWTFGQGTKVEIKR
modifications: fucose removed from the glycan (made in engineered CHO host cells)
B2: h10D8V4 (antibody, human IgG1, kappa, V domains shown)
VH: B1 VH with V5Q, V11L, R16G, D21S, K23A, S75A, F80Y
VL: DIVMTQSPSTLSASVGDRVTITCKASQDVKTAVSWYQQKPGQPPKLLIYWASTRHTGVPDRFSGSGSGTDYTLTISSLQAEDVAVYYCQQHYSTPWTFGQGTKVEIKR
B3: h10D8OF (antibody, human IgG1, kappa, V domains shown)
VH: B1 VH
VL: B1 VL
notes: Humanized m10D8, second round; LCDR2 is the mutant WASTRAT; also called anti-TIGIT antibody h10D8OF
B4: h10D8V5 (antibody, human IgG1, kappa, V domains shown)
VH: QVQLQESGGGLVQPGGSLRLSCAASGFTFSSYGMSWVRQNPDKRLELVATINSNGGSTYYPDSVKGRFTISRDNAKNTLYLQMNSLRAEDTAMYYCARLGTGTLGFAYWGQGTLVTVSS
VL: B2 VL with S9K, P43S, V85L, Q100G
B5: h10D8V3 (antibody, human IgG1, kappa, V domains shown)
VH: B1 VH with Q1E, V11L, R16G, D21S, K23A, F80Y
VL: B2 VL with V3Q, T10S, Q42K, P43A, D60S, A80P, V83F, V85T, Q100G
B6: Tiragolumab (positive control antibody) (antibody, human IgG1, kappa, V domains shown)
VH: EVQLQQSGPGLVKPSQTLSLTCAISGDSVSSNSAAWNWIRQSPSRGLEWLGKTYYRFKWYSDYAVSVKGRITINPDTSKNQFSLQLNSVTPEDTAVFYCTRESTTYDLLAGPFDYWGQGTLVTVSS
VL: not shown
B7: recombinant mouse anti-human TIGIT antibody m10D8 (antibody, mouse IgG2a, V domains shown)
VH: B4 VH with Q1E, Q3K, R19K, N84S, R87K, A88S
VL: DIVMTQAHKFMSTSGGDRVSITCKASQDVKTAVSWYQQKPGQSPKLLIYWASTRHTGVPDRFTGSGSGTDYTLTISSVQAEDLALYYCQQHYSTPWTFGGGTKLEIKR
B8: 10A7 antibody (hamster anti-mouse TIGIT antibody, positive control) (antibody, V domains shown)
VH: EVQLVESGGGLTQPGKSLKLSCEASGFTFSSFTMHWVRQSPGKGLEWVAFIRSGSGIVFYADAVRGRFTISRDNAKNLLFLQMNDLKSEDTAMYYCARRPLGHNTFDSWGQGTLVTVSS
VL: DIVMTQSPSSLAVSPGEKVTMTCKSSQSLYYSGVKENLLAWYQQKPGQSPKLLIYYASIRFTGVPDRFTGSGSGTDYTLTITSVQAEDMGQYFCQQGINNPLTFGDGTKLEIKR
notes: also called positive anti-TIGIT antibody (10A7)
B9: h10D8V1 (antibody, human IgG1, kappa)
heavy: not shown
light: DIQMTQSPSTLSAFVGDTITITCKASQDVKTAVSWYQQKPGQPPKLLIYWASTRHTGVPDRFSGSGSGTDYTLTISSLQAEDVAVYYCQQHYSTPWTFGQGTKVDIKRTVAAPSVFIFPPSDEQLKSGTASVVCLLNNFYPREAKVQWKVDNALQSGNSQESVTEQDSKDSTYSLSSTLTLSKADYEKHKVYACEVTHQGLSSPVTKSFNRGEC
notes: Humanized m10D8, first round
B10: h10D8V2 (antibody, human IgG1, kappa)
heavy: not shown
light: B9 light
notes: Same variable regions as h10D8V1; differs at EU positions 356 and 358 of the constant region

What was measured:
[1] = molecular target: T1, full-length human TIGIT on the cell …; test: cell-based or functional assay
[2] = molecular target: T1, full-length human TIGIT on the cell …; test: flow cytometry competition with 80 nM biotinylated PVR-Fc on Jurkat-hTIGIT cells
Description: (§1) The antibody was serially two-fold diluted from 15 nM to the 10th concentration (including 0 nM). The 10 concentration gradients of antibody were separately transferred into 10 centrifuge tubes each containing 1×10⁶ Jurkat-hTIGIT cells. The cells were then resuspended, and the mixture was incubated at 4° C. for 1 hour. The cells were centrifuged. The supernatant was discarded and the cells were washed twice with PBS. The cells were resuspended in 100 μL of 1:2000 diluted streptavidin PE (Thermo, Cat. No.: 12-4317-87) and incubated at 4° C. for 40 minutes. The cells were centrifuged, and the supernatant was discarded. The cells were washed twice with PBS, resuspended in 200 μL of PBS, and were detected for fluorescent signal using a flow analyzer (mean FL2-A). Finally, the collected fluorescent signals were plotted by 4-parameter fitting for analysis, and the IC₅₀ was calculated.

[3] = molecular target: T5, TIGIT-Fc fusion protein (human TIGIT extracellular region fused to human IgG1 constant region) (human); test: competition ELISA, blocks PVR binding to TIGIT (method of Example 3)
[4] = molecular target: T2, human TIGIT (antigen of the ELISA and …); test: ELISA, binding to TIGIT (FIG. 11)
[5] = molecular target: T3, TIGIT-his tag antigen; test: SPR-Biacore, TIGIT-his tag antigen (second batch)
[6] = molecular target: T2, human TIGIT (antigen of the ELISA and …); test: ELISA, binding to TIGIT (FIG. 12)
[7] = molecular target: T1, full-length human TIGIT on the cell …; test: flow cytometry on Jurkat-hTIGIT cells: antibody titrated against biotinylated PVR-Fc (blocked ligand), detected with streptavidin PE, mean FL2-A
Description: as §1

[8] = molecular target: T1, full-length human TIGIT on the cell …; test: binding to Jurkat-hTIGIT 2E6 cells, flow cytometry (FIG. 23)
[9] = molecular target: T3, TIGIT-his tag antigen; test: SPR-Biacore, TIGIT-his tag antigen
[10] = molecular target: T2, human TIGIT (antigen of the ELISA and …); test: ELISA, binding to TIGIT
[11] = molecular target: T3, TIGIT-his tag antigen; test: SPR-Biacore; series 3.125 to 50 nM printed on the panel
[12] = molecular target: T4, mouse TIGIT; test: ELISA on mouse TIGIT, OD450
[13] = molecular target: T5, TIGIT-Fc fusion protein (human TIGIT …); test: competition ELISA: TIGIT-Fc coated at 2 µg/mL, antibody titrated in 2 µg/mL PVR-Fc-bio (blocked ligand), OD450
[14] = molecular target: T2, human TIGIT (antigen of the ELISA and …); test: Biacore SPR; antigen not given

Row | Binder | IC50 [2] [nM] | IC50 [3] [µg/mL] | EC50 [4] [µg/mL] | Kd [5] [nM] | koff [5] [s⁻¹] | kon [5] [M⁻¹ s⁻¹] | EC50 [6] [µg/mL] | Kd [9] [nM] | koff [9] [s⁻¹] | kon [9] [M⁻¹ s⁻¹] | EC50 [10] [µg/mL] | further results
1 | B1 | – | – | – | – | – | – | – | – | – | – | – | ADCC activity EC50 [1]: 0.0152 nM; ADCC activity, fold of h10D8OF [1]: 8.8 times that of h10D8OF
2 | B2 | 15.8 | 0.217 | 0.0256 | – | – | – | – | – | – | – | – | –
3 | B3 | 11.3 | 0.159 | 0.0233 | 3.63 | 0.00183 | 502000 | 0.0427 | – | – | – | – | ADCC activity EC50 [1]: 0.125 nM; IC50 [7]: 0.656 nM; EC50 [8]: 0.696 nM
4 | B4 | 10.4 | 0.284 | 0.0241 | – | – | – | – | – | – | – | – | –
5 | B5 | – | – | – | – | – | – | – | 14.1 | 0.00114 | 81200 | 0.0526 | –
6 | B6 | – | 0.429 | – | 0.113 | 9.24e-05 | 818000 | 0.0536 | – | – | – | – | Kd [11]: 0.133 nM; IC50 [7]: 2.38 nM; EC50 [8]: 1.91 nM
7 | B7 | – | – | – | – | – | – | – | – | – | – | – | binding result [12]: no binding (tested: about 2 µg/mL); IC50 [13]: 0.273 µg/mL; Kd [14]: 0.197 nM; koff [14]: 0.0002 s⁻¹; kon [14]: 1.02e+06 M⁻¹ s⁻¹
8 | B8 | – | – | – | – | – | – | – | – | – | – | – | EC50 (read off the curve) [12]: ~0.02 µg/mL; IC50 [13]: 0.263 µg/mL
9 | B9 | – | – | – | – | – | – | – | 2.18 | 0.000446 | 205000 | 0.0762 | –
10 | B10 | – | – | – | 0.468 | 0.00048 | 1.02e+06 | 0.0531 | 2.55 | 0.000492 | 193000 | 0.0924 | –
